# Experimental data taken from the DeepSol protein solubility set.
# Test: soluble on expression in E. coli; label from the status in PepcDB or PDB records
row,Sequence,soluble on expression in E. coli
1,MIRMETYPHNFEEKVGFDEIRRLLIGHCHSPMGSDRVIQMHALARHNEVSRLLAETEEMQIILREEDLFPDLRLADVREALNRIRPAGTYLEERELQDVATALRTIEALIRFFHVGEEEEGKDTPYPHLQTLLSEVIVFPDLEKRISSLFDRFGKMKDNASPELMNIRRELSSIEKNISRTLQGILRLAQSEGWVDQGVQPSVRDGRLVIPVAPAHKRKVRGIVHDESGTGKTVFIEPAEIVEANNRIRELEAAERREIIRILIEVCDALRPHIHDLIDCYEWIGLFDFISAKARLCGEWNAIRPILSKKPEIRWEKAVHPLLLRSLRAHGRDVIPLDISLTAPDKRILVISGPNAGGKSVCLKTVGLLQYMLQSGLPIPMSPDSTAGIFGKLFIDIGDEQSIEDDLSTYSSHLRNMKHFARHTDKNTLLLIDEFGGGTEPQIGGAIAEALLHRFNEQEGFGVVTTHYQNLKAYAEETPGLVNGAMLYDRHEMRPLFRLSIGRPGSSFAIEIARKIGLPEEVIAEATDKVGTGYIDMDKYLQDIVRDKRYWETKRTNIRKEEKRLEGAAAEYESRLESIKKERKQILDEARQQASVMLSQSSAQIEKTIRDIKEAQAEREKTRRARQELNDFRETINKEEIEKEERINREIEKIKRRKKRKQEKAASRSAETPVQPKLQEVPQPPVIQVGDTVRIKGQTAIGSIIDMNDREATIALGMIKTTVPIDRLEPAKPVKERKSEPVSGASARMIIDRIHEKRLDFKQDIDLRGMRVNEAVQAVMYFIDDAIQLGIPRVRILHGTGTGALRTVIREYLATVNGVRHFADEHVQFGGAGITVVELG,not soluble
2,MIRRAKPLLGTLIEIAVESVVEASSQSALDEPAIQAAITAAFSRITQIGRLLSFHQQDSELNLLNRQPGQWITLSQDSLRVFKLAKWFGKASDNLFNCTIGGEMMSRGALPCYLGMPLLLQGDWQDIEIRGNQARLARPLIVTFDGIAKGYAVDMAVRELRRAGVSGGWVNAGGDLKVFGSASLDVLCRGSNGLSQKVTVRNMALASSRVSLQLSLGCPALLLPTGNVDMMSFDASNERVVSVQAPFAWRADALTKVAGYLSAEAAKDKIQQLGGQLVC,not soluble
3,MIRRAVVAGQFYPDDAELVEMLKRFFTDLGEEGNSRRITAGVAPHAGYIFSGYTASRTYKAIYEDGLPEVFVILGPNHTGLGSPIAVYPKGEWETPLGRIKVDEKLARRITELSEIADLDDLAHKYEHSIEVQLPFIQYLAELSGKDVKIVPITLGIQDEEVSYALGKAIYEASQELGRDIVVIASTDFMHYGEFYGYVPFRARADELPNLVKEWDMRVIRRILDFDVEGMFEEINAMNHTMCGPGGVGVGIVYSKLAGAIEAELLHYTTSFEVSRSTDAIVGYASIVMRKALEHHHHHH,not soluble
4,MIRTVKPKNARAKRALVKREAKLVENVKQALFIPGQSCNKNLHDIMVDLSALKKPDMKRFNRKNDIHPFEDMSPLEFFSEKNDCSLMVLMTSSKKRKNNMTFIRTFGYKIYDMIELMVADNFKLLSDFKKLTFTVGLKPMFTFQGAAFDTHPVYKQIKSLFLDFFRGESTDLQDVAGLQHVISMTIQGDFQDGEPLPNVLFRVYKLKSYKSDQGGKRLPRIELVEIGPRLDFKIGRIHTPSPDMVTEAHKKPKQLEMKTKKNVELDIMGDKLGRIHMGKQDLGKLQTRKMKGLKSKFDQGTEEGDGEVDEDYEDEASYSDDGQEYEEEFVSATDIEPSAKRQKK,not soluble
5,MISATYRLQLNKNFNFGDVIDNLWYFKDLGVSHLYLSPVLMASPGSNHGYDVIDHSRINDELGGEKEYRRLIETAHTIGLGIIQDIVPNHMAVNSLNWRLMDVLKMGKKSKYYTYFDFFPEDDKIRLPILGEDLDTVISKGLLKIVKDGDEYFLEYFKWKLPLTEVGNDIYDTLQKQNYTLMSWKNPPSYRRFFDVNTLIGVNVEKDHVFQESHSKILDLDVDGYRIDHIDGLYDPEKYINDLRSIIKNKIIIVEKILGFQEELKLNSDGTTGYDFLNYSNLLFNFNQEIMDSIYENFTAEKISISESIKKIKAQIIDELFSYEVKRLASQLGISYDILRDYLSCIDVYRTYANQIVKECDKTNEIEEATKRNPEAYTKLQQYMPAVYAKAYEDTFLFRYNRLISINEVGSDLRYYKISPDQFHVFNQKRRGKITLNATSTHDTKFSEDVRMKISVLSEFPEEWKNKVEEWHSIINPKVSRNDEYRYYQVLVGSFYEGFSNDFKERIKQHMIKSVREAKINTSWRNQNKEYENRVMELVEETFTNKDFIKSFMKFESKIRRIGMIKSLSLVALKIMSAGIPDFYQGTEIWRYLLTDPDNRVPVDFKKLHEILEKSKKFEKNMLESMDDGRIKMYLTYKLLSLRKQLAEDFLKGEYKGLDLEEGLCGFIRFNKILVIIKTKGSVNYKLKLEEGAIYTDVLTGEEIKKEVQINELPRILVRM,soluble
6,MISDRPGLPGEDMRLALLSFENYLLANRNTEKPVLHIALSPAPEDKLTDEQLAELAQNYMQKMGYGDQPYIAYKHGDTHNTHIHIVSVCVDEEGRKINDSFEHRRSMTACRELEIDFGLRNGADMEERNQKAEMKKVDATQGDVRHQIGNTLKAVLESYRFQTFGEYSALLSTLNIEAKQVRGEFKGEPYTGIIYSATDDSGKVVSPPFKSSRFGKRFGNERLEKRMLSHTRDFKDGKWAPTIHAQVVYAMRHARSREELAGLLKKARIDAVFRENEQGRIYGVTFIDHNRREVFNGSRMGKEFSANIYNELFKWWDGIPATERSAHTGTELWQHHSHKAESGSPLEQAASIFSMETNPVDYGEEALARRMKKRRKAKRKSRGI,not soluble
7,MISFNNVSKVYESGGQSVHAVEDVTLSVEKGEIFGIIGFSGAGKSTLLRLVNMLERPTAGTISIDDKDITSLSTKELRKLRQRIGMIFQSFNLFNSRTVFGNIAYPLKLAKVPKNEIKERVNELLKFVGLEDKANNYPEQLSGGQKQRVGIARALATSPDILICDEATSALDPETTTEILNLLKKVNREYNLTILLITHEMHVVKEICHRVAVMEKGKVIEEGKLFDVFTQPKTTTTQNFVRSVINDHLPESVLAKIQNGGQIYRLTFTGEETGQPVLSYIAKNYNVDVNVLYGNIIELQNVLFGNLLVELQGEQREIQKALQHLRLQVQLKEVEAHAS,not soluble
8,MISLPSGTRIWLVAGVTDMRKSFNGLGEQVQHVLDETPFSGHLFIFRGRRGDTVKILWADADGLCLFTKRLEEGQFIWPAVRDGKVSITRSQLAMLLDKLDWRQPKTFRLNSLTML,not soluble
9,MISSKLKLQSLTSKDLSAILELDQACFGGLWTMEGYQRELDSPNSDLLGLFSPSSPIKLLGMGCFWSIVGEAHITILAVHPQYHHQGLGQALLYFLLRTASDRGLERATLEVRASNEAAISLYQKFGFQTAGRRRAYYQDNGEDALILWLPDLQYPQFQETLAHWKTIIQDGLQKYSWSIVNSR,soluble
10,MISSWEQKNNCVMPEDVRNFYLMTNGFHMTWSVKLDDHIIPLGSMVINGISKLTQLIQSSVYSLPNAPTLADLEDDSQEGNEDHQLEKPHFDCRSAIFELDSCGGNGKVCLVYKNGKPGLAHDTEIWFLDRALYWHFLTDTFTAYYRLLITHLGLPQWQYAFTSYGISPQAKQWFSMYKPITYNTSLLTEEPDTFVNKLDPSKVFKSKNKILIPKKKGPVQPVSGQKGPGPLAPPTSKPSAGCGNPVRK,not soluble
11,MITQEMKDLINNQLAMVATVDAKGQPNIGPKRSMRLWDDKTFIYNENTDGQTRINIEDNGKIEIAFVDRERLLGYRFVGTAEIQTEGAYYEAAKKWAQGRMGVPKAVGIIHVERIFNLQSGANAGKEINSESN,not soluble
12,MITSPTNLNSLPIPPGDFGLPWLGETLNFLNDGDFGKKRQQQFGPIFKTRLFGKNVIFISGALANRFLFTKEQETFQATWPLSTRILLGPNALATQMGEIHRSRRKILYQAFLPRTLDSYLPKMDGIVQGYLEQWGKANEVIWYPQLRRMTFDVAATLFMGEKVSQNPQLFPWFETYIQGLFSLPIPLPNTLFGKSQRARALLLAELEKIIKARQQQPPSEEDALGILLAARDDNNQPLSLPELKDQILLLLFAGHETLTSALSSFCLLLGQHSDIRERVRQEQNKLQLSQELTAETLKKMPYLDQVLQEVLRLIPPVGGGFRELIQDCQFQGFHFPKGWLVSYQISQTHADPDLYPDPEKFDPERFTPDGSATHNPPFAHVPFGGGLRECLGKEFARLEMKLFATRLIQQFDWTLLPGQNLELVVTPSPRPKDNLRVKLHSLM,soluble
13,MITVNTLQKMKAAGEKIAMLTAYESSFAALMDDAGVDVLLVGDSLGMAVQGRQSTLPVSLRDMCYHTECVARGAKNAMIVSDLPFGAYQQSKEQAFAAAAELMAAGAHMVKLEGGVWMAETTEFLQMRGIPVCAHIGLTPQSVFAFGGYKVQGRGGKAQALLNDAKAHDDAGAAVVLMECVPAELAKKVTESVSCPTIGIGAGVDCDGQVLVMHDMLGIFPGKTAKFVKNFMQGQSSIQAAVRAYVAEVKAKTFPAAEHIFAD,not soluble
14,MIVPPPEELTGARVLAYALIDESTPYSGRITLYVDGELIGPVPRLVIALNNYGPDDYLLLYCNENWDVIGAGGHASLVAAKESANIAYPGVASRWQDVA,not soluble
15,MIWNETIECMDRESLRKIQSIRLKKIVDYVYHNTPFYRKKMQEMGITPDDINTIDDIVKLPFTTKHDLRDNYPFGLCAVPMSQIVRIHASSGTTGKPTVVGYTRKDLSSWAECISRAFTAYGAGRSDIFQVSYGYGLFTGGLGAHAGAENIGASVIPMSSGNTEKQITLMHDFGSTVLCCTPSYALYLADAIKDSGYPREEFQLKVGALGAEPWTENMRHEIEEKLGIKAYDIYGLSEIAGPGVGYECECQHGTHLNEDHYFPEIIDPNTLQPVEPGQTGELVFTHLTKEGMPLLRYRTRDLTALHYDKCSCGRTLVRMDRILGRSDDMLIIRGVNVFPTQIESVILEMEEFEPHYLLIVGRENNTDTMELQVEVRPDFYSDEINRMLALKKKLASRLQSVLGLGVNVKLVEPRSIERSVGKAKRVIDNRKI,not soluble
16,MIYDFTTKISRKNLGSLKWDLMYSQNPEVGNEVVPLSVADMEFKNPPELIEGLKKYLDETVLGYTGPTEEYKKTVKKWMKDRHQWDIQTDWIINTAGVVPAVFNAVREFTKPGDGVIIITPVYYPFFMAIKNQERKIIECELLEKDGYYTIDFQKLEKLSKDKNNKALLFCSPHNPVGRVWKKDELQKIKDIVLKSDLMLWSDEIHFDLIMPGYEHTVFQSIDEQLADKTITFTAPSKTFNIAGMGMSNIIIKNPDIRERFTKSRDATSGMPFTTLGYKACEICYKECGKWLDGCIKVIDKNQRIVKDFFEVNHPEIKAPLIEGTYLQWIDFRALKMDHKAMEEFMIHKAQIFFDEGYIFGDGGIGFERINLAAPSSVIQESLERLNKALKDLKNRHLK,soluble
17,MIYFIRKKKWLKQLEKGEAMKYAILIGDGMADYPIEKLGNRTILQAARTPAMDSIAARGRAGLAKTVPDSFPPGSDVANMSILGYDPATYYSGRAPLEAASMGVALAADDVAFRCNLITTEHGMIKDYSAGHISSDEAEILIDTLDYELSTENIRFYPGISYRHLIVAGNNLGAETECTPPHDITGEKIDKYLPRGKDGEFFSELIEASKVVLELHPVNLKRVEEGKNPANSIWVWGQGYAPKFTAFMKLYGKKGAVISAVDLLKGIGIYAGLDVIEVHGATGYLDTNYEGKVRAAIEALKTRDLVFVHVEAPDEAGHEGSIEKKLKAVEDFDSRIVAPILEYAENSDEPFTILVLPDHPTPISVKTHTRDPIPFAIYRTDKPETDNVEAFDEESVKNGSMGLVKASDLIGILIKS,not soluble
18,MKAAPLIGISRHRLSTDGEGVTTLVAFHGCPLRCKYCLNPQSLHSEGIWKNYDCEQLYEEVRQDELYFLATNGGITFGGGEPCLQSDFIYEFRQLCGQEWQLSVETSLNVTQENIEKLVPVVDSYIIDIKDINNTIYQKYTGKNNEKVLHNLQYLIEHGKNEQIIVRTPVIPAYNTENDVDNSIRLLKEMGIIQFDRFTYKTPNNCQP,not soluble
